Data reported in publication PMC7840129, “Structural basis for heme-dependent NCoR binding to the transcriptional repressor REV-ERBβ” (Science Advances, 2021).

How the values were obtained:
REV-ERBβ LBD / NCoR RID = test: Chemical cross-linking mass spectrometry (XL-MS); format: binding; conditions: apo LBD and heme-bound LBD ± RID; DSSO
Description: (§1) Apo or heme-bound REV-ERBβ LBD and NCoR RID protein samples were cross-linked in Hepes gel filtration buffer [25 mM Hepes (pH 7.5) at room temperature, 50 mM NaCl, and 0.5 mM TCEP]. Non–cross-linked negative controls were generated using the same procedure without the addition of DSSO (Thermo Fisher Scientific). Samples included 4 μM apo LBD with or without 2 μM RID and 4 μM heme-bound LBD with or without 2 μM RID; complexes were preincubated 1 hour on ice. Reactions were initiated by spiking DSSO in DMSO at a final concentration of 600 μM in 50-μl solutions. The final molar ratio of cross-linker:protein was 100:1. The reactions were incubated at 25°C for 45 min before being quenched by the addition of tris (pH 8.0) to a final concentration of 50 mM. Each cross-link reaction was done in triplicate, and the reaction replicates were pooled after quenching. Samples (10 μl) were loaded for SDS-PAGE analysis with Coomassie staining to confirm the presence of cross-linked protein. The remaining cross-linked and non–cross-linked samples were then acetone-precipitated at −20°C overnight, and the protein was pelleted by centrifugation at 16,000 relative centrifugal force (rcf) for 5 min at 4°C. After decanting, the pellets were dried for 15 min at room temperature before being resuspended in 12.5 μl of resuspension buffer [50 mM ammonium bicarbonate and 8 M urea (pH 8.0)]. […]

REV-ERBβ LBD = test: DSSO chemical cross-linking, SDS-PAGE; format: binding, human; conditions: 4 μM LBD ± heme with 2 μM RID, 600 μM DSSO, 25°C, 45 min
Description: To further support this stoichiometry, we performed chemical cross-linking analysis of apo or heme-bound LBD ± RID using DSSO (disuccinimidyl sulfoxide), a cross-linker that cross-links lysine residues as well as serine, threonine, and tyrosine residues (fig. S9, A and B).
as §1, with “protein.” for “protein. The remaining cross-linked and non–cross-linked samples were then acetone-precipitated at −20°C overnight, and the protein was pelleted by centrifugation at 16,000 relative centrifugal force (rcf) for 5 min at 4°C. After decanting, the pellets were dried for 15 min at room temperature before being resuspended in 12.5 μl of resuspension buffer [50 mM ammonium bicarbonate and 8 M urea (pH 8.0)].”

B1: WT RID: mouse NCoR RID (residues 1942 to 2208 in the X50 splice variant) (protein, UniProt Q60974 1942-2208, looked up, fragment)
chain: TITAANFIDVIITRQIASDKDARERGSQSSDSSSSLSSHRYETASDAIEVISPASSPAPPQEKPQAYQPDMVKANQAENESTRQYEGPLHHYRSQQESPSPQQQPPLPPSSQSEGMGQVPRTHRLITLADHICQIITQDFARNQVPSQASTSTFQTSPSALSSTPVRTKTSSRYSPESQSQTVLHPRPGPRVSPENLVDKSRGSRPGKSPERSHIPSEPYEPISPPQGPAVHEKQDSMLLLSQRGVDPAEQRSDSRSPGSISYLPSF
modifications: X50 splice variant
effect of RID on LBD-LBD cross-links (REV-ERBβ LBD / NCoR RID): enhanced LBD-LBD cross-links
LBD:RID complexes by cross-linking SDS-PAGE (REV-ERBβ LBD): two bands with molecular weights consistent with 1:1 and 2:1 LBD:RID complexes
